Target: plasma purified human antithrombin III (AT-III), in complex with unfractionated heparin (UFH) (human) (UniProt P01008)
Test: inhibition of FIXa by AT-III/UFH, residual activity on Mesyl-D-CHG-Gly-Arg-AMC, pseudo-first-order

| Substance | kapp (apparent second-order rate constant for inhibition) [M⁻¹ s⁻¹] |
| --- | --- |
| FIXa-K228N/K247N/N249S/R318Y/T343R/R403E/E410N (from UniProt P00740 47-191; P00740 227-461) (enzyme) | 17000 |
| FIXa-K228N/R318Y/R338E/T343R/R403E/E410N (from UniProt P00740 47-191; P00740 227-461) (enzyme) | 7100 |
| FIXa-K247N/N249S/R318Y/R338E/T343R (from UniProt P00740 47-191; P00740 227-461) (enzyme) | 320000 |
| FIXa-K247N/N249S/R318Y/T343R/E410N (from UniProt P00740 47-191; P00740 227-461) (enzyme) | 49000 |
| FIXa-K247N/N249S/R338E/T343R/R403E (from UniProt P00740 47-191; P00740 227-461) (enzyme) | 50000 |
| FIXa-R318Y/R338E/T343R (from UniProt P00740 47-191; P00740 227-461) (enzyme) | 1.8e+06 |
| FIXa-R318Y/T343R/E410N (from UniProt P00740 47-191; P00740 227-461) (enzyme) | 1.2e+06 |

Further lines, results first:

| kapp (apparent second-order rate constant for inhibition) [M⁻¹ s⁻¹] | Substance |
| --- | --- |
| 630000 | FIXa-K228N/K247N/N249S/R318Y/R338E/T343R/E410N (from UniProt P00740 47-191; P00740 227-461) (enzyme) |
| 1000 | FIXa-K228N/K247N/N249S/R318Y/R338E/T343R/R403E (from UniProt P00740 47-191; P00740 227-461) (enzyme) |
| 210000 | FIXa-K247N/N249S/R318Y/R338E/T343R/E410N (from UniProt P00740 47-191; P00740 227-461) (enzyme) |
| 9800 | FIXa-K247N/N249S/R318Y/T343R/R403E (from UniProt P00740 47-191; P00740 227-461) (enzyme) |
| 25000 | FIXa-K247N/N249S/R318Y/T343R/R403E/E410N (from UniProt P00740 47-191; P00740 227-461) (enzyme) |
| 1.4e+07 | FIXa-K247N/N249S/R338E/T343R/E410N (from UniProt P00740 47-191; P00740 227-461) (enzyme) |
| 2e+07 | FIXa-R338E/T343R/E410N (from UniProt P00740 47-191; P00740 227-461) (enzyme) |

Target: antithrombin III (plasma purified human AT-III), in complex with unfractionated heparin (human) (UniProt P01008)
Test: AT-III/UFH inhibition of FIXa; residual activity on Pefafluor FIXa substrate, varied incubation time

| Substance | kapp (apparent second-order rate constant for inhibition) [M⁻¹ s⁻¹] |
| --- | --- |
| FIXa A103N/N105S/K247N/N249S/R318Y/R338E/R403E/E410N (from UniProt P00740 47-191; P00740 227-461) (enzyme) | 1700 |
| FIXa D85N/K228N/R318Y/R338E/R403E/E410N (from UniProt P00740 47-191; P00740 227-461) (enzyme) | 3000 |
| FIXa D104N/K106S/I251S/R318Y/R338E/R403E/E410N (from UniProt P00740 47-191; P00740 227-461) (enzyme) | 5700 |
| FIXa I251S/R318Y/R338E/E410N (from UniProt P00740 47-191; P00740 227-461) (enzyme) | 240000 |
| FIXa I251S/R318Y/R338E/R403E/E410N (from UniProt P00740 47-191; P00740 227-461) (enzyme) | 3000 |
| FIXa K228N/R318Y/E410N (from UniProt P00740 47-191; P00740 227-461) (enzyme) | 1.9e+06 |
| FIXa K228N/R318Y/R338E/R403E/E410N (from UniProt P00740 47-191; P00740 227-461) (enzyme) | 2900 |
| FIXa R318Y/R338E (from UniProt P00740 47-191; P00740 227-461) (enzyme) | 620000 |
| FIXa R318Y/R338E/R403E/E410S (from UniProt P00740 47-191; P00740 227-461) (enzyme) | 1600 |
| FIXa R318Y/R403E/E410N (from UniProt P00740 47-191; P00740 227-461) (enzyme) | 28000 |
| FIXa T343Q (from UniProt P00740 47-191; P00740 227-461) (enzyme) | 2.1e+06 |
| FIXa T343R (from UniProt P00740 47-191; P00740 227-461) (enzyme) | 4.2e+06 |
| FIXa T343R/Y345T (from UniProt P00740 47-191; P00740 227-461) (enzyme) | 5e+06 |
| FIXa Y155F/K228N/R318Y/R338E/R403E/E410N (from UniProt P00740 47-191; P00740 227-461) (enzyme) | 4600 |
| FIXa Y155F/K247N/N249S/R318Y/R338E/E410N (from UniProt P00740 47-191; P00740 227-461) (enzyme) | 180000 |
| FIXa Y155F/K247N/N249S/R318Y/R338E/R403E/E410N (from UniProt P00740 47-191; P00740 227-461) (enzyme) | 1600 |
| FIXa Y155F/N346D (from UniProt P00740 47-191; P00740 227-461) (enzyme) | 4e+06 |
| FIXa Y345T (from UniProt P00740 47-191; P00740 227-461) (enzyme) | 1.8e+06 |

Other lines, results leading:

| kapp (apparent second-order rate constant for inhibition) [M⁻¹ s⁻¹] | Substance |
| --- | --- |
| 2600 | FIXa A103N/N105S/R318Y/R338E/R403E/E410N (from UniProt P00740 47-191; P00740 227-461) (enzyme) |
| 3900 | FIXa D104N/K106S/R318Y/R338E/R403E/E410N (from UniProt P00740 47-191; P00740 227-461) (enzyme) |
| 1000 | FIXa D104N/K106S/Y155F/K247N/N249S/R318Y/R338E/R403E/E410N (from UniProt P00740 47-191; P00740 227-461) (enzyme) |
| 2900 | FIXa D104N/K106S/Y155F/R318Y/R338E/R403E/E410N (from UniProt P00740 47-191; P00740 227-461) (enzyme) |
| 53000 | FIXa D203N/F205T/R318Y/E410N (from UniProt P00740 47-191; P00740 227-461) (enzyme) |
| 860000 | FIXa K247N/N249S/R318Y/R338E/E410N (from UniProt P00740 47-191; P00740 227-461) (enzyme) |
| 2000 | FIXa K247N/N249S/R318Y/R338E/R403E/E410N (from UniProt P00740 47-191; P00740 227-461) (enzyme) |
| 840000 | FIXa N346Y (from UniProt P00740 47-191; P00740 227-461) (enzyme) |
| 450000 | FIXa Y155F/R318Y/R338E/E410N (from UniProt P00740 47-191; P00740 227-461) (enzyme) |
| 8100 | FIXa Y155F/R318Y/R403E/E410N (from UniProt P00740 47-191; P00740 227-461) (enzyme) |

Reference: patent US20210238260A1
